± gives the standard deviation.
Assay: protein stability index of a GFP-peptide fusion (GPS, HEK-293T) (PSI 1-6); higher = more stable
[1] = treatment: DMSO, c terminus: a fixed tail appended
[2] = treatment: MLN4924 1 uM, 8 h, c terminus: a fixed tail appended
[3] = treatment: DMSO, c terminus: native
[4] = treatment: MLN4924 1 uM, 8 h, c terminus: native
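Note: 24-mer peptide tiles fused after GFP, lentivirally expressed, FACS-sorted into six equal bins by GFP/DsRed ratio, decoded by Illumina sequencing, PSI is the read-weighted mean bin number.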

Sequence | protein stability index [1] | protein stability index [2] | protein stability index [3] | protein stability index [4]
MAAPPKAPIRVRNLTIRAGALTGK [DMRTC1] | 3.57 ± 0.33 | 3.73 ± 0.22 |  | 
TNDRTASQGQWGRAWEVDWFSLAS [DHCR7] | 2.61 ± 0.56 | 2.68 ± 0.33 |  | 
IFSVTALDPDSKENAQIIYSLAED [PCDHGA10] | 3.1 ± 0.47 | 3.21 ± 0.19 |  | 
VFDSEKCVSIPDVVGWFVLFYKPG [GULP1] | 2.8 ± 1 | 2.83 ± 0.33 |  | 
QEDITKSLLVTELGSSRTPETVRM [IMPA1] | 4.58 ± 0.12 | 4.49 ± 0.34 |  | 
EHACTVRNLARSQSVKMKDKLKID [TAF7L] | 4.75 ± 0.18 | 4.81 ± 0.2 |  | 
TVVTGLGPDTQDLEGQSPPQSLPS [PBXIP1] | 5.07 ± 0.34 | 5.16 ± 0.098 |  | 
PVSMEMDNHMSDKDESCYDNAEAA [INTS3] | 5.53 ± 0.36 | 5.53 ± 0.23 |  | 
HRRFCELLPQEQRSVESSLRAQVP [CIB1] | 3.63 ± 0.13 | 3.66 ± 0.15 |  | 
ECGHNFCKACITRWWEDLERDFPC [TRIM39] | 2.97 ± 0.49 | 3.01 ± 0.7 |  | 
LAMNYLDRFLAGVPTPKSHLQLLG [CCND2] | 2.94 ± 0.61 | 2.65 ± 0.76 |  | 
ISAHKPLLISSCDWMAAMFGGPFV [RHOBTB2] | 2.51 ± 0.57 | 2.44 ± 0.2 |  | 
LTPGQSDSAKREVKQKISPYFKSN [FAN1] | 3.92 ± 0.19 | 3.97 ± 0.26 |  | 
YSLAEDTIQGVPLSSYISINSDTG [PCDHGA10] | 3.53 ± 0.2 | 3.47 ± 0.28 |  | 
GFWRIDPQYAERLLSGAFKKRRLP [FOXJ1] | 2.56 ± 0.12 | 2.4 ± 0.37 |  | 
TAHASAQSLAGGSRRTKEEELQC [TPD52L1] |  |  | 4.99 ± 0.1 | 4.88 ± 0.17
HTEERPFKCNYCGKSFRQRPSLVI [ZNF449] | 2.37 ± 0.15 | 2.44 ± 0.28 |  | 
DDPENKKTSSSSKAGFTASPFTNL [CDC14A] | 4.92 ± 0.27 | 4.95 ± 0.14 |  | 
TNKMKSPETKQRKLSPLRLSVSNN [KMT2E] | 4.45 ± 0.18 | 4.41 ± 0.083 |  | 
MEVPQPEPAPGSALSPAGVCGGAQ [CDC25B] | 5.25 ± 0.34 | 5.23 ± 0.33 |  | 
HPVNPPYYIPLVELVPHPETAPTT [CRYL1] | 3.51 ± 0.33 | 3.51 ± 0.22 |  | 
NLQDTLEAASFLQILPVLDFCKVF [KLHL13] | 2.73 ± 0.35 | 2.63 ± 0.52 |  | 

Sequence | protein stability index [1] | protein stability index [2] | protein stability index [3] | protein stability index [4]
ADEDDDRDVALQIHFTLIQAFCCE [GADD45A] | 2.28 ± 0.35 | 2.36 ± 0.085 |  | 
FTRSQTLIQNGGEIDCVDKDGNTP [ANKRD44] | 4.74 ± 0.16 | 4.81 ± 0.21 |  | 
TSLKTKFPAEQYYRFHEHWRFVLQ [TSN] | 2.34 ± 0.19 | 2.54 ± 0.16 |  | 
EDDSMSVIEPVVENSGILQGKLIK [EFHC1] | 4.89 ± 0.45 | 5.45 ± 0.25 |  | 
VLITVEDVNDNSPELTITSLFSPV [PCDHGA10] | 2.3 ± 0.49 | 2.07 ± 0.19 |  | 
AEDGGAYLATAKVLITVEDVNDNS [PCDHGA10] | 4.4 ± 0.21 | 4.36 ± 0.29 |  | 
KENAAAPSPVRAPAPSPAKEERKT [PALM] | 5.45 ± 0.24 | 5.53 ± 0.23 |  | 
ASAAARLGCNRQSWCLKRYDLEYW [TRIM14] | 2.29 ± 0.7 | 1.86 ± 0.27 |  | 
LPESLARSLLPSTEYQKQLLAAQV [FBF1] | 2.75 ± 0.46 | 2.56 ± 0.26 |  | 
GLGAGFGGGFAGGDGLLVGSEKVT [KRT16] | 3.98 ± 0.11 | 4.081 ± 0.035 |  | 
SSDKVRGIETLESVPIIGGFWETI [PHTF1] | 2.56 ± 0.32 | 2.65 ± 0.31 |  | 
PMNRRNILVMKHNYSQDAADACDI [NETO1] | 3.59 ± 0.11 | 3.8 ± 0.27 |  | 
RIYRMIKLGLGIDEDEVAAEEPNA [HSP90AB1] | 2.95 ± 0.24 | 3.19 ± 0.38 |  | 
HRLLNMARNNNDPGRLTEALCLEV [RNF180] | 3.89 ± 0.33 | 3.96 ± 0.28 |  | 
SCNDSKLEFRSFWELIGEAAKSVK [S100A14] | 2.18 ± 0.21 | 2.11 ± 0.52 |  | 
LRNNFQKQLLSNKELILDKVYTHP [ZC2HC1C] | 2.76 ± 0.23 | 3.08 ± 0.25 |  | 
AEQEALTGECKELEKKNEALKERA [ATF4] | 5.3 ± 0.28 | 5.28 ± 0.27 |  | 
DFGLAIEVQGDQQAWFGFAGTPGY [CAMK2B] | 2.26 ± 0.35 | 2.15 ± 0.3 |  | 
ALPIATAFTEYVHAYFRGHSPSCL [FCHO1] | 2.73 ± 0.55 | 2.78 ± 0.57 |  | 
KDGMAFQEALDPGPFDQGSPFAQE [ELF3] | 4.65 ± 0.69 | 4.94 ± 0.12 |  | 
ISVLAFSVCFIFTITIGMFPAVTV [SLC29A1] | 2.96 ± 0.13 | 2.92 ± 0.32 |  | 
HRWPSNMYLKQLAEYRKYIHSRKC [RHOBTB3] | 2.75 ± 0.37 | 3.19 ± 0.27 |  | 

Sequence | protein stability index [1] | protein stability index [2] | protein stability index [3] | protein stability index [4]
AEVVKIRDSFSNQNTETKDTKSR [DLC1] |  |  | 2.89 ± 0.56 | 3.47 ± 0.74
GDEFSLREHELLCRADHGLLLERA [ISL2] | 4.06 ± 0.49 | 3.65 ± 0.35 |  | 
EEKIQVLQQQNEDLKARIDQNTVV [MTUS2] | 5.28 ± 0.24 | 5.28 ± 0.069 |  | 
MCPPVSMRYEEEGMSYLYASWMYQ [TEX19] | 2.3 ± 0.082 | 2.11 ± 0.22 |  | 
GKDVATQILEGELFDFDLEVKPVL [RSPH3] | 3.79 ± 0.087 | 3.81 ± 0.46 |  | 
GPFGVNHGVELHSDVIEYAKQKLD [PCMTD2] | 3.94 ± 0.6 | 4.28 ± 0.25 |  | 
VILNYPSPWDQEERPAQRDCSFPG [TRAF3IP2] | 2.79 ± 0.21 | 3.15 ± 0.25 |  | 
AILFTRQDLCGVSTCDTLGMADVG [ADAMTS4] | 1.8 ± 0.28 | 2.66 ± 0.22 |  | 
HMLLNTTLNIKETDSKELSMAKEV [ZBED1] | 4.26 ± 0.17 | 4.35 ± 0.2 |  | 
LVFLELAQFHCAYQLADWCLHHIC [RHOBTB2] | 3.16 ± 0.17 | 2.98 ± 0.43 |  | 
WTHVTLLIVVTQSHLVIHNLFEGM [CDS2] | 3.22 ± 0.23 | 3.34 ± 0.35 |  | 
AFSQAISAIQALRSSVSRVFDCLK [MED27] | 3.69 ± 0.36 | 3.41 ± 0.15 |  | 
SAAGIEARSRALRRRWCPAGIMLL [SPACA3] | 2.3 ± 0.11 | 2.38 ± 0.15 |  | 
MGKSASKQFHNEVLKAHNEYRQKH [GLIPR2] | 3.94 ± 0.27 | 3.96 ± 0.28 |  | 
VDATLEHVQDPQNTVKVQVLYPDG [INTS4] | 4.37 ± 0.12 | 4.49 ± 0.15 |  | 
KSPTGLKLKNDTENHQPVSLSDLE [ZNF75A] | 5.3 ± 0.23 | 5.188 ± 0.043 |  | 
APELLGGAEPGTYLTGTINGDPES [ADAMTS4] | 5.73 ± 0.28 | 5.51 ± 0.36 |  | 
NVLHVARLPNRQLISCSEDGSVRI [WDR41] | 2.99 ± 0.17 | 3.12 ± 0.32 |  | 
FRCLFEAEITQIQSHISDMSVILS [KRT71] | 1.94 ± 0.14 | 2.34 ± 0.37 |  | 
QTMLSHYRPFYVNKGNGIGSNEAP [TRIM29] | 2.97 ± 0.27 | 3.17 ± 0.2 |  | 
EIDCVDKDGNTPLHVAARYGHELL [ANKRD44] | 4.05 ± 0.26 | 4.05 ± 0.19 |  | 
STKGSRSNLSTRDASILTEMPTQP [NETO1] | 4.52 ± 0.27 | 4.71 ± 0.24 |  | 

Sequence | protein stability index [1] | protein stability index [2] | protein stability index [3] | protein stability index [4]
RQAVAWLVAMHKAAKLLYESRDQ [ZFYVE21] |  |  | 2.95 ± 1.1 | 2.28 ± 0.3
HVAAAVLRIRSVEGRKKAFSTCGS [OR3A1] | 2.3 ± 0.24 | 2.22 ± 0.34 |  | 
KDAALATALGDKKSLEGDLEDLKD [LMNB1] | 5.42 ± 0.36 | 5.89 ± 0.14 |  | 
NAKLASDDFRSKYQTEQSLRLLVE [KRT34] | 3.16 ± 0.34 | 3.04 ± 0.49 |  | 
TATEELEKTQDDLMKHQTNISELK [EPB41L3] | 5.69 ± 0.23 | 5.47 ± 0.39 |  | 
YDRVAQLDQLLHYRKKSAEFPDFY [CHGB] | 2.72 ± 0.14 | 2.8 ± 0.21 |  | 
VRVRQDSGAEGHSHSCYHDTRSGF [TRIM35] | 3.51 ± 0.25 | 3.62 ± 0.31 |  | 
ENGYGFHLNAIRGLPGSFIKEVQK [PDZK1] | 2.62 ± 0.18 | 2.97 ± 0.43 |  | 
EHPPEVSRETQRTPMNHQKAVNDE [FBXO34] | 5.29 ± 0.21 | 5.41 ± 0.075 |  | 
TLSDWAAAVESVLHLGLPWRMLRP [PPEF2] | 3.1 ± 0.84 | 2.48 ± 0.37 |  | 
DREEEAIHHLVLTASDGGDPLRSG [PCDHGA10] | 5.02 ± 0.2 | 5.08 ± 0.11 |  | 
QIQEFKEAFTLMDQNRDGFIDKED [MYL5] | 5.12 ± 0.26 | 5.19 ± 0.32 |  | 
AFASTCLLSRFSVGIFHLMQIAVP [TMEM175] | 3.02 ± 0.29 | 3 ± 0.22 |  | 
LRIRSVEGRKKAFSTCGSHLTVVA [OR3A1] | 2.43 ± 0.42 | 2.2 ± 0.47 |  | 
EGDVCGVEPPGPGDTVVQGDLQET [PBXIP1] | 5.57 ± 0.28 | 5.64 ± 0.19 |  | 
LRYLSSIWNILDLVVILLSIVAVG [PKD2L1] | 2.66 ± 0.65 | 3.3 ± 0.32 |  | 
HHDKVQSLCYLQLTRQLVSCSSDG [WDFY1] | 2.2 ± 0.36 | 2.06 ± 0.28 |  | 
FIPSSHNDRDFLTRIFTEDRFAQD [PPEF2] | 2.58 ± 0.81 | 3.05 ± 0.64 |  | 
ALAVKAGHGYDSKKQQELTAAVLG [ZBED1] | 3.82 ± 0.24 | 3.87 ± 0.25 |  | 
PIRSRRALPPLRTRSKSDPVLHPS [FAM189A2] | 4.9 ± 0.17 | 4.94 ± 0.16 |  | 
FDTNAEGCILQWKKIYCRICMAQI [ZBED1] | 2.39 ± 0.65 | 2.04 ± 0.079 |  | 
GARQISYSIPEELEKGSFVGNISK [PCDHGA10] | 4.13 ± 0.19 | 4.23 ± 0.17 |  | 

Reference: the supplement of paper PMC10567573
